Experimental data reported in article PMC8810934.

Target: F-actin in live HEK293T cells (human (endogenous in HEK293T)) (UniProt P60709)
Test: FRET or BRET; live HEK293T cells co-transfected with ABD-mEGFP (donor) and Lifeact-mCherry (acceptor, on actin filaments); harvested 24 h after transfection; FRET efficiency from mEGFP fluorescence lifetime (time-correlated single photon counting); n = 3

FRET efficiency: 8.4%
Substance: L253P β-III-spectrin ABD fused at the C-terminus to mEGFP (domain or fragment)
